In patent EP4269437A1 (Zhejiang Nanomab Technology Center Co. Ltd., dated 2023):
Where two headings read alike, the source gives them in different places.

B1: NB194-P29 (Fc fusion)
heavy: QLQLVESGGGSAQAGGSLTLSCTASGHSFSIYDMGWFRQAADKERESVAVINFGRGTTYYAESVKGRFTISLDSAKNTVYLQMNTLKPEDTAVYSCGIDRRQYGLGIPPLADHWGQGSQVTVSS
notes: not shown: IgG4 constant region of vector pCDNA3.4-IgG4
B2: NB194 (Fc fusion)
heavy: QVQLVETGGGLVRAGGSLRLSCTASGRPFSIYDMGWFRQAPDKERESVAVINLSRGDTYYADSVKGRFTISLDSAKNTVYLQMNSLKPEDTAVYSCGVDRRQYGLGIPPLADHWGQGTQVTVSS
notes: as for B1

Legend:
PD-1 [1] = molecular target: T1, PD-1 (UniProt Q15116 25-170, limits assumed); assay: SPR; set-up and antigen form not restated
T1 construct: also called PD-1 protein
T1 sequence (Q15116 25-170 limits assumed): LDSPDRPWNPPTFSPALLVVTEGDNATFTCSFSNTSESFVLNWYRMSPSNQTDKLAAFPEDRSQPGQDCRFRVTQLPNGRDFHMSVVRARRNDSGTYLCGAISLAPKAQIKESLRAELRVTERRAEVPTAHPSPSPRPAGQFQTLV

PD-1 [2] = molecular target: T1, PD-1; assay: SPR; set-up and antigen form not restated; remark: listed apart in the source
PD-1 [3] = molecular target: T1, PD-1; assay: SPR; set-up and antigen form not restated; remark: listed apart in the source
CD28 = molecular target: T2, CD28 (UniProt P10747 19-152); assay: ELISA on coated protein, anti-human Fc HRP
T2 construct: bought

murine PD-1 protein = molecular target: T3, murine PD-1 protein (murine, UniProt Q02242 25-167, limits assumed); assay: ELISA on coated protein, anti-human Fc HRP
T3 construct: bought
T3 sequence (looked up): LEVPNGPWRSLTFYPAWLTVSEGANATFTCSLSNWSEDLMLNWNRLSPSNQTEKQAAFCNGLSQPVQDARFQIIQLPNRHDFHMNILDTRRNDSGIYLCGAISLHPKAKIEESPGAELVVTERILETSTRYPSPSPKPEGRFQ

ICOS = molecular target: T4, ICOS (UniProt Q9Y6W8 21-140, limits assumed); assay: ELISA on coated protein, anti-human Fc HRP
T4 construct: bought
T4 sequence (looked up): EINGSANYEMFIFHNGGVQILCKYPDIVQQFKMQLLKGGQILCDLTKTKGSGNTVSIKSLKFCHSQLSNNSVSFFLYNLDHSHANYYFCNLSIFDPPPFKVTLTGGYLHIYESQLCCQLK

CTLA-4 = molecular target: T5, CTLA-4 (UniProt P16410 36-161, limits assumed); assay: ELISA on coated protein, anti-human Fc HRP
T5 construct: bought
T5 sequence (P16410 36-161 limits assumed): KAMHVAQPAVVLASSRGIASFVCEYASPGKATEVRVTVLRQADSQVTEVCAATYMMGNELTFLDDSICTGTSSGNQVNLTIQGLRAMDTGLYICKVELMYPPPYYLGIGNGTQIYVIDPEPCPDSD

PD-1.His = molecular target: T6, PD-1.His (UniProt Q15116 25-170, limits assumed); assay: SPR, antibody captured on protein A, PD-1.His in flow
T6 construct: not shown: His tag
T6 sequence (Q15116 25-170 limits assumed): as the sequence (Q15116 25-170 limits assumed) above

[4] = molecular target: PD-1 on GS-J2/PD1 effector cells (UniProt Q15116 25-288, limits assumed); assay: cell-based or functional assay
Sequence of PD-1 on GS-J2/PD1 effector cells (Q15116 25-288 limits assumed): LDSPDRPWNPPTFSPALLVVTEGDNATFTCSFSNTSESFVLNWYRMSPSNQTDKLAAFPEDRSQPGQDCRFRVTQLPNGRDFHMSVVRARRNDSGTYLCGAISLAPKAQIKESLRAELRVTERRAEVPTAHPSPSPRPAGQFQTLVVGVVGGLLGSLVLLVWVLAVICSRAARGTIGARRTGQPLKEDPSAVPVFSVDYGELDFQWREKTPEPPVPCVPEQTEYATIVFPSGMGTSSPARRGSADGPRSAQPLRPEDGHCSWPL

| Binder | fold increase in affinity compared to NB194 (PD-1 [1]) | Kd (PD-1 [2]) | koff (PD-1 [2]) | kon (PD-1 [2]) | Kd (PD-1 [3]) | koff (PD-1 [3]) | kon (PD-1 [3]) | binding result (CD28) | binding result (murine PD-1 protein) | binding result (ICOS) | binding result (CTLA-4) | Kd (PD-1.His) | koff (PD-1.His) | kon (PD-1.His) | Reporter Gene Assay EC50 (luciferase) [4] |
| --- | --- | --- | --- | --- | --- | --- | --- | --- | --- | --- | --- | --- | --- | --- | --- |
| B1 | 5 fold | 0.151 nM | 4.37e-05 s⁻¹ | 290000 M⁻¹ s⁻¹ | 0.118 nM | 2.86e-05 s⁻¹ | 243000 M⁻¹ s⁻¹ |  |  |  |  |  |  |  |  |
| B2 |  |  |  |  | 0.531 nM | 7.36e-05 s⁻¹ | 139000 M⁻¹ s⁻¹ | no binding | no binding (tested: 0.1µg) | no binding | no binding | 0.494 nM | 0.000105 s⁻¹ | 212000 M⁻¹ s⁻¹ | 7 nM |
